The target in the assay is T1, mouse α7 subunit of the 20S proteasome, full length (mouse, UniProt O70435 1-255).
T1 construct: also called a7; full length a7 construct
T1 sequence (looked up): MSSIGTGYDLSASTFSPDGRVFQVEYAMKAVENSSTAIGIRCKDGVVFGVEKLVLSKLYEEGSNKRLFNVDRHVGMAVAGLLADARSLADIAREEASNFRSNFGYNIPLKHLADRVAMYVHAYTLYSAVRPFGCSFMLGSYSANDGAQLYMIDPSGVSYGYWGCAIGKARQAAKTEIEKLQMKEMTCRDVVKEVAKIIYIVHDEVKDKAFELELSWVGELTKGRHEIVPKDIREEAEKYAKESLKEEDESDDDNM
Nature of the assay: yeast two-hybrid screen of a mouse cDNA library with PR-39 exon 4 as bait. How it is done: To identify possible intracellular targets of PR-39 peptide action, a yeast two-hybrid screen of mouse cDNA library was performed using the unique 4th exon DNA sequence of porcine PR-39 gene as "bait". […] All four clones encoded overlapping identical cDNA sequences which are highly homologous to the sequence of the human α7 (HC8) subunit of the 20S proteasome (GeneBank accession AF055983).

B1: porcine PR-39 peptide (4th exon, amino acids 131 to 169) in pAS2-1 vector as yeast two-hybrid bait (peptide, not shown: large carriers)
chain: RRRPRPPYLPRPRPPPFFPPRLPPRIPPGFPPRFPPRFP
notes: Bait of the yeast two-hybrid assay; The 39 residues are amino acids 131 to 169 of the porcine precursor; also called PR-39 construct
As for B1, the binding result is reported as “binds”.

(Values after US7202212 (BETH ISRAEL DEACONESS MEDICAL CENTER, dated 2007).)
